Reference: the supplement of paper PMC7125110
± gives the standard error. Fewer inactive variants are shown than the library holds.

B1: glmS ribozyme (parent)
chain: AUAAAAGCGCCAGAACUACAGAAAUGUAGUUGACGAGGAGGAGGUUUAUCGAAUUUUCGGCGGAUGCCUCCAAA

How the values were obtained:
Settings in all cases: with glucosamine-6-phosphate
glucosamine-6-phosphate [1] = variants of: B1; assay: self-cleavage kobs at 40 uM GlcN6P; higher = faster cleavage; RNA array
Method in brief: (§1)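 Ribozyme variants carrying barcodes were transcribed in situ on sequenced MiSeq chips by E. coli RNA polymerase and tracked at 37 °C with a hybridised Cy3 probe. They were exposed to 40 μM to 10 mM glucosamine-6-phosphate in HEPES/KCl/Mg(OAc)2 buffer. kobs came from exponential decay fits of normalised per-tile medians, and kcat and KM from weighted Michaelis–Menten fits.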

glucosamine-6-phosphate [2] = variants of: B1; assay: self-cleavage kobs at 160 uM GlcN6P; higher = faster cleavage; RNA array
Method in brief: as §1

glucosamine-6-phosphate [3] = variants of: B1; assay: self-cleavage kobs at 640 uM GlcN6P; higher = faster cleavage; RNA array
Method in brief: as §1

glucosamine-6-phosphate [4] = variants of: B1; assay: self-cleavage kobs at 2500 uM GlcN6P; higher = faster cleavage; RNA array
Method in brief: as §1

glucosamine-6-phosphate [5] = variants of: B1; assay: self-cleavage kobs at 10000 uM GlcN6P; higher = faster cleavage; RNA array
Method in brief: as §1

## G35A C68A
glucosamine-6-phosphate [1]
  self-cleavage kobs at 40 uM GlcN6P: < 1e-05 s⁻¹
glucosamine-6-phosphate [2]
  self-cleavage kobs at 160 uM GlcN6P: < 1e-05 s⁻¹
glucosamine-6-phosphate [3]
  self-cleavage kobs at 640 uM GlcN6P: < 1e-05 s⁻¹
glucosamine-6-phosphate [4]
  self-cleavage kobs at 2500 uM GlcN6P: < 1e-05 s⁻¹

## A6C G35U G38A G43U U54G C67U
glucosamine-6-phosphate [1]
  self-cleavage kobs at 40 uM GlcN6P: < 1e-05 s⁻¹
glucosamine-6-phosphate [4]
  self-cleavage kobs at 2500 uM GlcN6P: < 1e-05 s⁻¹
glucosamine-6-phosphate [5]
  self-cleavage kobs at 10000 uM GlcN6P: < 1e-05 s⁻¹

## A6C G66C C68G
glucosamine-6-phosphate [1]
  self-cleavage kobs at 40 uM GlcN6P: < 1e-05 s⁻¹

## A6C G40U
glucosamine-6-phosphate [1]
  self-cleavage kobs at 40 uM GlcN6P: < 1e-05 s⁻¹
glucosamine-6-phosphate [2]
  self-cleavage kobs at 160 uM GlcN6P: < 1e-05 s⁻¹
glucosamine-6-phosphate [3]
  self-cleavage kobs at 640 uM GlcN6P: < 1e-05 s⁻¹

## G41U U65C
glucosamine-6-phosphate [1]
  self-cleavage kobs at 40 uM GlcN6P: < 1e-05 s⁻¹
glucosamine-6-phosphate [2]
  self-cleavage kobs at 160 uM GlcN6P: < 1e-05 s⁻¹
glucosamine-6-phosphate [5]
  self-cleavage kobs at 10000 uM GlcN6P: 2.23e-05 ± 7.2e-06 s⁻¹

## C8U A64G C68U
glucosamine-6-phosphate [1]
  self-cleavage kobs at 40 uM GlcN6P: < 1e-05 s⁻¹
glucosamine-6-phosphate [5]
  self-cleavage kobs at 10000 uM GlcN6P: < 1e-05 s⁻¹

## A42U U49G C68G
glucosamine-6-phosphate [1]
  self-cleavage kobs at 40 uM GlcN6P: < 1e-05 s⁻¹

## C8U U45G
glucosamine-6-phosphate [1]
  self-cleavage kobs at 40 uM GlcN6P: < 1e-05 s⁻¹
glucosamine-6-phosphate [2]
  self-cleavage kobs at 160 uM GlcN6P: < 1e-05 s⁻¹
glucosamine-6-phosphate [3]
  self-cleavage kobs at 640 uM GlcN6P: < 1e-05 s⁻¹
glucosamine-6-phosphate [4]
  self-cleavage kobs at 2500 uM GlcN6P: < 1e-05 s⁻¹

## U47A A53G U54G
glucosamine-6-phosphate [1]
  self-cleavage kobs at 40 uM GlcN6P: 0.000659 ± 0.00016 s⁻¹
glucosamine-6-phosphate [5]
  self-cleavage kobs at 10000 uM GlcN6P: 0.0222 ± 0.0081 s⁻¹

## A14C U31C A39U
glucosamine-6-phosphate [1]
  self-cleavage kobs at 40 uM GlcN6P: 2.48e-05 ± 1.1e-05 s⁻¹
glucosamine-6-phosphate [5]
  self-cleavage kobs at 10000 uM GlcN6P: 0.00132 ± 0.00031 s⁻¹

## A6G A52G
glucosamine-6-phosphate [1]
  self-cleavage kobs at 40 uM GlcN6P: < 1e-05 s⁻¹
glucosamine-6-phosphate [2]
  self-cleavage kobs at 160 uM GlcN6P: < 1e-05 s⁻¹

## C19A U56G C68U
glucosamine-6-phosphate [1]
  self-cleavage kobs at 40 uM GlcN6P: 0.000112 ± 3.6e-05 s⁻¹
glucosamine-6-phosphate [4]
  self-cleavage kobs at 2500 uM GlcN6P: 0.00041 ± 7.6e-05 s⁻¹
glucosamine-6-phosphate [5]
  self-cleavage kobs at 10000 uM GlcN6P: 0.000435 ± 9.2e-05 s⁻¹

## G43U U46A U57C C70A
glucosamine-6-phosphate [1]
  self-cleavage kobs at 40 uM GlcN6P: < 1e-05 s⁻¹
glucosamine-6-phosphate [3]
  self-cleavage kobs at 640 uM GlcN6P: < 1e-05 s⁻¹
glucosamine-6-phosphate [5]
  self-cleavage kobs at 10000 uM GlcN6P: < 1e-05 s⁻¹

## A15G G38C
glucosamine-6-phosphate [1]
  self-cleavage kobs at 40 uM GlcN6P: < 1e-05 s⁻¹
glucosamine-6-phosphate [2]
  self-cleavage kobs at 160 uM GlcN6P: < 1e-05 s⁻¹
glucosamine-6-phosphate [3]
  self-cleavage kobs at 640 uM GlcN6P: < 1e-05 s⁻¹
glucosamine-6-phosphate [4]
  self-cleavage kobs at 2500 uM GlcN6P: < 1e-05 s⁻¹

## G35U A42G
glucosamine-6-phosphate [1]
  self-cleavage kobs at 40 uM GlcN6P: < 1e-05 s⁻¹
glucosamine-6-phosphate [2]
  self-cleavage kobs at 160 uM GlcN6P: < 1e-05 s⁻¹
glucosamine-6-phosphate [3]
  self-cleavage kobs at 640 uM GlcN6P: < 1e-05 s⁻¹
glucosamine-6-phosphate [4]
  self-cleavage kobs at 2500 uM GlcN6P: < 1e-05 s⁻¹
glucosamine-6-phosphate [5]
  self-cleavage kobs at 10000 uM GlcN6P: < 1e-05 s⁻¹

## G60A C71U
glucosamine-6-phosphate [1]
  self-cleavage kobs at 40 uM GlcN6P: < 1e-05 s⁻¹
glucosamine-6-phosphate [3]
  self-cleavage kobs at 640 uM GlcN6P: < 1e-05 s⁻¹

## C11U G32C C58U C70G
glucosamine-6-phosphate [1]
  self-cleavage kobs at 40 uM GlcN6P: 4.92e-05 ± 2.1e-05 s⁻¹

## A12C C70U
glucosamine-6-phosphate [1]
  self-cleavage kobs at 40 uM GlcN6P: 0.000475 ± 4e-05 s⁻¹
glucosamine-6-phosphate [2]
  self-cleavage kobs at 160 uM GlcN6P: 0.00111 ± 0.00017 s⁻¹
glucosamine-6-phosphate [3]
  self-cleavage kobs at 640 uM GlcN6P: 0.00328 ± 0.00037 s⁻¹
glucosamine-6-phosphate [4]
  self-cleavage kobs at 2500 uM GlcN6P: 0.0217 ± 0.0053 s⁻¹
glucosamine-6-phosphate [5]
  self-cleavage kobs at 10000 uM GlcN6P: 0.0163 ± 0.0022 s⁻¹

## A6G G9A G44A C71A
glucosamine-6-phosphate [1]
  self-cleavage kobs at 40 uM GlcN6P: < 1e-05 s⁻¹
glucosamine-6-phosphate [4]
  self-cleavage kobs at 2500 uM GlcN6P: < 1e-05 s⁻¹
glucosamine-6-phosphate [5]
  self-cleavage kobs at 10000 uM GlcN6P: < 1e-05 s⁻¹

## G29A C50G A53U G66U
glucosamine-6-phosphate [1]
  self-cleavage kobs at 40 uM GlcN6P: 5.27e-05 ± 2.6e-05 s⁻¹

## C16G A42U
glucosamine-6-phosphate [1]
  self-cleavage kobs at 40 uM GlcN6P: < 1e-05 s⁻¹
glucosamine-6-phosphate [2]
  self-cleavage kobs at 160 uM GlcN6P: < 1e-05 s⁻¹

## G60A G62U
glucosamine-6-phosphate [1]
  self-cleavage kobs at 40 uM GlcN6P: < 1e-05 s⁻¹
glucosamine-6-phosphate [2]
  self-cleavage kobs at 160 uM GlcN6P: < 1e-05 s⁻¹
glucosamine-6-phosphate [3]
  self-cleavage kobs at 640 uM GlcN6P: < 1e-05 s⁻¹
glucosamine-6-phosphate [4]
  self-cleavage kobs at 2500 uM GlcN6P: < 1e-05 s⁻¹

## C10U A14G A52U G60U
glucosamine-6-phosphate [1]
  self-cleavage kobs at 40 uM GlcN6P: < 1e-05 s⁻¹
glucosamine-6-phosphate [4]
  self-cleavage kobs at 2500 uM GlcN6P: < 1e-05 s⁻¹
glucosamine-6-phosphate [5]
  self-cleavage kobs at 10000 uM GlcN6P: < 1e-05 s⁻¹

## A6C G60A
glucosamine-6-phosphate [1]
  self-cleavage kobs at 40 uM GlcN6P: < 1e-05 s⁻¹
glucosamine-6-phosphate [3]
  self-cleavage kobs at 640 uM GlcN6P: < 1e-05 s⁻¹
glucosamine-6-phosphate [4]
  self-cleavage kobs at 2500 uM GlcN6P: < 1e-05 s⁻¹
